In patent US20250034594A1, “RNA-GUIDED GENOME RECOMBINEERING AT KILOBASE SCALE” (THE BOARD OF TRUSTEES OF THE LELAND STANFORD JUNIOR …, priority 2021, published 2025):

Experiments:
Type in all cases: cell-based
gene editing with Cas9 = assay: Screen of 322 new SSAP proteins, gene editing activity with Cas9 (Table 5); set-up: Cas9 with SSAP activity: scale not given here
How it was run: (§1)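 The 322 SSAP proteins were found in sequence data and then synthesized. Each was screened for gene editing activity when paired with Cas9 and with dCas9.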

[1] = tested on: gene editing with Cas9 and dCas9; assay: Screen of 322 new SSAP proteins, activity across all experiments (Cas9 and dCas9, Table 5); set-up: scale not given here
How it was run: as §1

gene editing with dCas9 = assay: Screen of 322 new SSAP proteins, gene editing activity with dCas9 (Table 5); set-up: dCas9 with SSAP activity: scale not given here
How it was run: as §1

| Molecule | Cas9 with SSAP activity (gene editing with Cas9) | Cas9 with SSAP activity (normalized) (gene editing with Cas9) | Activity across all experiments [1] | dCas9 with SSAP activity (gene editing with dCas9) | dCas9 with SSAP activity (normalized) (gene editing with dCas9) |
| --- | --- | --- | --- | --- | --- |
| SSAP_248: SEQ ID NO: 417; Peptoniphilus senegalensis (protein, listed as Peptoniphilus senegalensis) TNQIARKPVNEIKNVLSVPSVRNLFDNALADNAGAFVSSLIDLYGGDSYLQNCEPKDVVMEALKAATLKLPINKNLGFGYVVPFKNKNGKLVPTFIIGYKGLIQLAMRTGQYKAINSGIIYEGMEIKEDVLRGTLEIKGSKQSEKIKGYFAYFQLINGFEKALYMDVEEAADWGRKYSKSFAKGPWTTEFDAQAQKTCLRRLLSKYGVLSTEMQRLEKTEEDVDIAVGTIENNAVEELNIPSSQADYIVDEETGEILDDEEIVAPF | −0.854 | −1.210 | −3.063 | −5.272 | −0.814 |
| SSAP_244: SEQ ID NO: 413; Nicoletella semolina (protein, listed as Nicoletella semolina) LKNADPQSVFNAACMAATLNLPIQNGLGFAYIVPYQNKKEKKTEAQFQLGYKGLIQLAQRSGQFKRLVAVPVYEKQLIAEDPINGFEFDWKQKPENGEKPIGYYAYFKLLNDFTAELYMTTHEVDEHAQRYSQTYRTYLDKKSKGQWASSVWADNFEAMALKTVMKLLLSKQAPLSVEMQQAVLADQAVVKNVETNEFSYVDNQIEEAEYTELKVSTDIFEKCKQSILNKETTLQELCDSGYEFSQEQYAELEKLEVE | −8.469 | – | −6.718 | −4.966 | −0.819 |
| SSAP_128: SEQ ID NO: 297; Viridibacillus sp. FSL H8-0123 (protein, listed as Viridibacillus sp.) ATNNALKEQMKQAPSKEVKPEQSLNTLLKRMGPEIQRALPKHMDADRIARIALTAVRNTPKLLDCDQMSFVAALMQSAQLGVEPNTGLGQAYLIPYGKQVQFQLGYKGLIDLAVRSGQYKAIYAHEVYEDDEFSFAYGLHKDLVHVPAPNPTGEPIGYYAVYHLQNGGYDFVYWTRERIDQHAHKFSMAVQKGWTSPWKTNFDAMAKKTVLKEVLKYAPKSIEMQKVVDADETVKTDVSDDMSNVIDVTDYTVMDQEQETIQEPTK | 0.839 | 0.272 | −2.230 | −5.299 | −0.965 |
| SSAP_24: SEQ ID NO: 193 (protein) TNNQIVEAKGDFLTNPQLLNSGIIRKYLDPQGKASDEELAYFIAQAKAQNLNPFTKEIYFIKYGTQPAQIVTAKSAFEKKADSHPQFDGKEAGVIYLMDGEIKYSKGAFIPKGAEILGGWAKVYRKDRTYPTETEVSFEEYDNSKIRARVKELTQQGKDVTYPVMNSYGKPIGENNWDTMPCVMIRKVALVSAYREAFPAELGASYEADEIQLDNTPKDVTPQESREDVVARKMAEIEQFNKEQEANHADPEPTQNEDPIQGELLDGELEY | −3.642 | −0.681 | −4.480 | −5.319 | −0.711 |
| SSAP_28: SEQ ID NO: 197 (protein) AITPNPIPAQDGSPIPSPDDIVGELARRKIYAGIPDDDVALALALCQKYGFDPLLKHLVLLATKDRDETTGQGQKHYNAYVTRDGLLHVAHTSGMLDGLETIQGKDDLGEWAEAVVYRKDMSRPFRYRVYLSEYVREAKGVWKTHPQAMLTKTAEVFALRRAFDVALTPFEEMGFDNQNIAGDTGPSPKTGFTEKAGFTGNTDFSAEASLPGKARFSTEAGLTDMTVIPPNRVTGSIPETSRLNTSAGSTGRQRRQLF | 0.503 | 0.506 | −2.227 | −4.957 | −0.886 |
| SSAP_110: SEQ ID NO: 279; Aneurinibacillus tyrosinisolvens (protein, listed as Aneurinibacillus tyrosinisolvens) SDLKEKLEKRANETEAAPPSPAQTIAAYLKRMEPEIARALPKHMDVERLTRIALTTIRTNPRLLECTVPSLLGAVMQAAQLGLEPGLLGQCYIIPHGREATFIIGYKGMIDLARRSGNIKSIYAHDVRENDEFEYEYGLHPFLKHRPAMTDRGKFIGVYAVAHFNDGGYQFEFMPYEEIERRKLRSRSYKNGPWVTDYEEMAKKTVIRHMFKYLPLSVEIMRSAAQDETVRPDLTSDPVSIYERPIEGKIITAEDVQPEEIPNVPDAEQGDV | −2.674 | −0.477 | −3.889 | −5.104 | −1.491 |
| SSAP_247: SEQ ID NO: 416; Ruminococcus sp. CAG: 579 (protein, listed as Ruminococcus sp.) NERTNLQYAPAPVERFKECLNSHEIKARLKNSLKNNWTQFQTSMLDLYSGDAYLQKCDPMAVALECVKAATLDLPISKSLGFAYVVPYNNVPTFTLGYKGLIQLAQRTGQYRTINADVVYEGEIRGADKLSGMVDLSGERTGDEVVGYFAYFKLINGFEKMIYMTRAEAEKWRDDYSPSAKSKYSPWRTDFDKMALKTCIRRLISKYGIMSVEMQGVMTEEAEPRAAAAAKRAEETVQANANSKVIDIDAAPPAANESPAEAAPQPDF | −2.602 | −3.388 | −1.027 | 0.549 | 0.332 |
| SSAP_168: SEQ ID NO: 337; Romboutsia lituseburensis (protein, listed as Romboutsia lituseburensis) SNLKNVLKNQEDKGQGITVNPTYAMKQLMIKMKNDIDLALPKNLSSERFQKVSMSAFNNNEKLQNCEPTTFIAAMMQSAQLGLEPNTPLGQVYLIPHNLNGVDKVQFQVGYKGLLQLAHRSGKLKTLYAHEVKENDEFEIDYGLEQKLIHKPLLKGNRGDVIGYYAVYHLEPSGYSFEFMTYDEVAKHGKKYSKDFEGGIWEKDFDSMAKKTVIKKLLKYAPLSIEMQKAVAFDESVKSSIDSDMLLVESIGE | 0.735 | 1.158 | −2.237 | −5.210 | −0.836 |
| SSAP_61: SEQ ID NO: 230 (protein) ATSLKRAVTGDGKPATVQQLLTNPKIKSQIALALPQHLTPERLTRIVLTEIRRTPALAKCKPESLLAAVMQCAQLGLEPGGSLGHAWLMPFKNEVQFIIGYRGMIDLARRSGQVLSIEARGVYESDTFHVSFGLEPDLTHQPDWDPADRGKLAFVYAVARLKDGGFQFDVMSRAEVEKIRAQSPAGKSGPWVTHFEEMAKKTVIRRLFKYLPVSVEMARAVGLDEAAERGEQSDAIDADCVIESEEEATPEEKGDSAA | −1.348 | −0.539 | −3.303 | −5.258 | −0.804 |
| SSAP_85: SEQ ID NO: 254 (protein) TASKQTDIFSFVSGGEDITITLADIKNYFCANATDQECVLFGQLCKANGLNPWLKEAYLIKYDKNAPAAMVTGKDAYMKRANEHPAFDGYEAGVKVYLPDVGQVEYREGTAYYEDLGEQLIGGYAKVYRKDRSRPYYEEVPLKEYDTKQSKWKTSPATMIRKVALVHALREAFPTNIQGMYDADETPYAADYEGSFREMDDPTPAPSMRGRIAPAPVADPLEDLEADVIEAGDVE | −0.312 | −0.125 | −2.702 | −5.091 | −1.071 |
| SSAP_140: SEQ ID NO: 309; Staphylococcus equorum (protein, listed as Staphylococcus equorum) ATNETLKQKVVERKPNGVKEQSPKTQLNHLLKKMAPEIQRALPKHMDSDRMARIAMTAVSNTPKLLECDQMSFIAALMQASQLGVEPNTGLGQAYLIPYAGKVQFQLSYKGLIDLATRSGQYKSIYAHEVYTNDEFEYRYGLFKDLIHIPSQEPEGNPIGYYAVYHLKNGGYDFVYWTRERVDKHAKEFSQAVQKGWTSPWITNYDAMAKKTVLKEVLKYAPKSIEMNKAVENDSTIKEEIDKDMSTVIDVTDYSEVEEQESLETGGQTSK | −1.374 | −0.848 | −3.187 | −5.000 | −0.780 |
| SSAP_99: SEQ ID NO: 268; Pseudomonas stutzeri (protein, listed as Pseudomonas stutzeri) STENVAPFSQKDMQQATGQQVKPRSPADSLAAMLASPKMKAQFAAALPKHMTAERMARIVTTEIRKTPALVKCDQHSFLGSVIQCAQLGLEPGNSLGHAYLLPYGNQVQLIIGYRGMIDLARRSGQIVSLSARTVREHDEFDYQLGLHEDLTHKPFEGEHAGEITHVYAVARLQGGGVQFEVMSKAQVEAVRAQSKAGKSGPWVSHWEEMAKKTVIRRLFKYLPVSVEIQRAVTLDEAAEAGLPQGNEYVFDGDFEVVNDASGAQQ | −3.807 | −0.873 | −4.570 | −5.333 | −0.891 |
| SSAP_251: SEQ ID NO: 420; Hathewaya proteolytica (protein, listed as Hathewaya proteolytica) ADSKKELILKESYSVLDRLIETKISAMPKDFNRTRFLQNCMTVLQDTKDIEKCQPISVARTLLKGAFLGLDFFQKECYAIPYGGTLQFQTDYKGETKMAKKYSIRPIKDIYAKVVREDDLFEEEIKEGQQFVNFKPIPFSDKPIIGAFAVVLYQDGGMEYETMSKTQIEGIRDNFSKMKNGLMWTKTPEEAYKKTVLRRLTKKIEKDFDTIEQAKTYEETSDSEFKKEEKCNEKSVFDVEYSEVESEELEQQTMLENSPFGGEQ | −0.983 | −1.345 | −3.012 | −5.041 | −0.760 |
